Assay results published in article PMC7042235.

Biological target: microtubules (polymerized porcine tubulin) (porcine) (UniProt P02550)
Assay: co-sedimentation; purified MTBDs (1-32 uM) mixed with 5 uM paclitaxel-stabilised porcine MTs; 100 mM PIPES pH 6.8, 50 mM NaCl, 2 mM MgCl2, 1 mM EGTA; 210,000 x g, 25 °C, 10 min; pellets on SDS-PAGE, densitometry, one-site curve fitting

In the case of “MTBD-WT (microtubule-binding domain of yeast cytoplasmic dynein, K3096-E3232) (from UniProt P36022 3096-3232) (domain or fragment)”, the Kd is reported as 6.7 µM.
